The source of these data is patent publication US20040258687A1.

The test concerns the target guanylyl cyclase C (GC-C), as expressed on T84 human colon carcinoma cells (human) (UniProt P25092). Nature of the test: cell-based or functional assay.

Sequence of guanylyl cyclase C (GC-C), as expressed on T84 human colon carcinoma cells (human) (P25092 24-1073): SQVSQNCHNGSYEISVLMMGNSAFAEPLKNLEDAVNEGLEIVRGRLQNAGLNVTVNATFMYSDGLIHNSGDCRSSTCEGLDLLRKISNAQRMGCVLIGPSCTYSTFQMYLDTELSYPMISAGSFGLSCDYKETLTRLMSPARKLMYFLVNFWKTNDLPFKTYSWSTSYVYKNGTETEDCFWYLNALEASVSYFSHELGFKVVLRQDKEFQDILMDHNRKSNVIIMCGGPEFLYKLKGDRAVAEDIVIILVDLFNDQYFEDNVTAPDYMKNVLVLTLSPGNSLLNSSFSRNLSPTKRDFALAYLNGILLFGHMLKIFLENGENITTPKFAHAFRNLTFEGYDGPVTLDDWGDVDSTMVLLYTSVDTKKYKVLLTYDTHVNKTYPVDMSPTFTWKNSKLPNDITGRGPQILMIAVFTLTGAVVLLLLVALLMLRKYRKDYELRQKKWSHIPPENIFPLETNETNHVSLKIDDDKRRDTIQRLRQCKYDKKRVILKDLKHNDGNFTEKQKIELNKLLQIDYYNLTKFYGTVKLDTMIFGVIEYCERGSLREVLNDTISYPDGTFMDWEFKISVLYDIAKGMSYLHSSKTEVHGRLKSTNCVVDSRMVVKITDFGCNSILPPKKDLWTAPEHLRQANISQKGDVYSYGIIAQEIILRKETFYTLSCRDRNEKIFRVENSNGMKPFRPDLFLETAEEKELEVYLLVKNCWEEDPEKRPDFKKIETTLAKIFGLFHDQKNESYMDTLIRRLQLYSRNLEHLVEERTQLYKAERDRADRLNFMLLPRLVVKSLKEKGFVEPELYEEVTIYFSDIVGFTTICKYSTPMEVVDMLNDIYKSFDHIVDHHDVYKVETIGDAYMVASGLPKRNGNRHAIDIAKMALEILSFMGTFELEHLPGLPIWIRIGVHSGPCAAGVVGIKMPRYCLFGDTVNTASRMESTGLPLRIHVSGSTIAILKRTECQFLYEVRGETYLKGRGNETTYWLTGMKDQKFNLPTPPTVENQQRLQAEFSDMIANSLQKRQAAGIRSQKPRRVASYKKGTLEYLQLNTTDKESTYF

In turn, “E. coli heat-stable enterotoxin (ST) (peptide)” yielded an EC50 for ST (cytostatic effect, in vitro TJU experiments) of 10 nM.
